Measurements taken from patent publication US20220332804A1 (CSL INNOVATION, published 2022).
Substitutions are numbered along the chain they refer to.

Experiments:
Assay in all cases: SPR, mAb captured, C2 mutant analyte;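 also: Anti-C2 mAbs captured on goat anti-human IgG Biacore CM5 chips, alanine or serine C2 surface mutants flowed over at 37 °C, double-referenced sensorgrams fitted to a 1:1 binding model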
human C2 F689A = biological target: T1, human C2 F689A (human, UniProt P06681 21-752)
T1 sequence: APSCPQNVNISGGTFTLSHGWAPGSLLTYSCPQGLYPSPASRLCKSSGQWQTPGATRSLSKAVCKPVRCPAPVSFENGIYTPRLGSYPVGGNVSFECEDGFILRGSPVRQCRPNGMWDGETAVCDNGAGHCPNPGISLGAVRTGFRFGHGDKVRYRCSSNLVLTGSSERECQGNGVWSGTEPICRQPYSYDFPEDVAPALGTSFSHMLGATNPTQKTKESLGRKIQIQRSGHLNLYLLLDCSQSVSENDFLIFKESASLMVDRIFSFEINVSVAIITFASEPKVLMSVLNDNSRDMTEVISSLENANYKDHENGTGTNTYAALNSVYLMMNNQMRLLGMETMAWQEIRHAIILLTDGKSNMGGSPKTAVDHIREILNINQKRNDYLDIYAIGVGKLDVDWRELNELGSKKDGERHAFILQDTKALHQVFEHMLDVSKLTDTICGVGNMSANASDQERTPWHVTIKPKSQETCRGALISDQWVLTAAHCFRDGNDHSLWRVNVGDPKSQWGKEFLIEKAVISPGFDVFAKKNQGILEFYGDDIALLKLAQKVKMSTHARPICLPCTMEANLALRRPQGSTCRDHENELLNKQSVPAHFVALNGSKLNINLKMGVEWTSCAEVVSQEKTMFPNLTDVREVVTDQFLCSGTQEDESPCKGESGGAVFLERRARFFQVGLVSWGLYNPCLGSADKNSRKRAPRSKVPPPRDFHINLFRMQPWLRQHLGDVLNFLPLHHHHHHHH
Experimental: (§1) Surface plasmon resonance (SPR, Biacore) was used for all binding affinity analyses. In brief, goat anti-human IgG was directly immobilised onto the carboxymethyl dextran surface of CM5 sensorchips to approximately 12,000 RU using standard NHS/EDC chemistry at pH 5. The immobilised antibody surface was pre-conditioned with ten injections of polyclonal human IgG (Privigen 60 s) prepared at 1 μg/mL. Ligands (anti-C2 mAbs) were captured at the beginning of each cycle as described below. An adjacent spot or flow cell in which only Polyclonal IgG was capture was used as a reference surface. The goat anti-human IgG Fc antibody surface was regenerate in 100 mM H3PO4, injected for 45 seconds at the end of each cycle. Experiments were performed at 37° C. and the flow rate of each experiment was kept constant at 30 μL/min.
(§2) Sensogram data was double-referenced against a reference anti-IgG surface (i.e. minus anti-C2 mAb) and blank buffer injections obtained within each experiment. The binding data was fit to 1:1 (kinetic or steady-state) model using local Rmax and null refraction index (RI=0) when appropriate. Buffers and solutions were filtered (0.22 μm) prior to use.

human C2 K274A = biological target: T2, human C2 K274A (human, UniProt P06681 21-752)
T2 sequence: T1 sequence with K254A, A669F
Experimental: as §1, §2

human C2 G414A = biological target: T3, human C2 G414A (human, UniProt P06681 21-752)
T3 sequence: T1 sequence with G394A, A669F
Experimental: as §1, §2

human C2 D431A = biological target: T4, human C2 D431A (human, UniProt P06681 21-752)
T4 sequence: T1 sequence with D411A, A669F
Experimental: as §1, §2

B1: RF16-214 (antibody, V domains shown)
VH: EVQLLESGGGLVQPGGSLRLSCAASGFTFSWYQMMWVRQAPGKGLEWVSRIYPSGGGTAYADSVKGRFTISRDNSKNTLYLQMNSLRAEDTAVYYCARDAGYGDNWGQGTLVTVSS
VL: QSALTQPPSVSVSPGQTASITCSGDKLGEKYASWYQQKAGQSPVMVIYQDRKRPSGIPERFSGSNSGNTATLTISGTQAMDEADYYCQAWDTRAVVFGGGTKLTVLG
Human C2 F689A
  Kd: 36.5 nM
Human C2 K274A
  binding result: no binding
Human C2 G414A
  Kd: 14.8 nM
Human C2 D431A
  Kd: 71.8 nM
